Measured values published in paper PMC7504066.

Columns and labels:
[1] = target: Plasmodium vivax PLP synthase domain (Pdx1) (Plasmodium vivax); test: SAXS; batch SAXS at EMBL beamline P12 (PETRA III), 293 K; Pdx1 and SEC-purified Pdx complex (mixed 1:1, overnight) at 1, 2 and 5 mg mL^-1; ab initio (GASBOR, P6) and rigid body (SASREF) models, SAXSMoW mass
[2] = target: Plasmodium vivax PLP synthase domain (Pdx1) (Plasmodium vivax); test: SEC; each protein alone on a Superdex 200 26/60 column; peak fractions evaluated by PAGE
[3] = target: Plasmodium vivax PLP synthase domain (Pdx1) (Plasmodium vivax); test: native gel or EMSA; native PAGE of the purified proteins and of the SEC-purified Pdx complex
[4] = target: Plasmodium vivax PLP synthase domain (Pdx1) (Plasmodium vivax); test: negative-stain electron microscopy; Pdx1 alone, 25-30 µg mL^-1 in 20 mM Tris pH 8.0, 200 mM NaCl, 5 mM MTG, 2% uranyl acetate
[5] = target: Plasmodium vivax PLP synthase domain (Pdx1) (Plasmodium vivax); test: dynamic light scattering; purified Pdx1 alone and SEC-purified Pdx complex in a quartz cuvette, Spectroscatter-301, 660 nm laser, 90° angle

stoichiometry N [1]	stoichiometry N [2]	stoichiometry N [3]	stoichiometry N [4]	stoichiometry N [5]	stoichiometry N (Pdx2 per Pdx1 dodecamer (12:12)) [1]	Substance
12	12	12	12	12		Plasmodium vivax PLP synthase domain (Pdx1) (enzyme)
					12	Plasmodium vivax glutaminase domain (Pdx2) (enzyme)
